This data set deals with SP1 (rhSP1) (Homo sapiens, UniProt P08047 1-785). Briefly: EMSA.
SP1 (rhSP1), sequence (P08047 whole entry): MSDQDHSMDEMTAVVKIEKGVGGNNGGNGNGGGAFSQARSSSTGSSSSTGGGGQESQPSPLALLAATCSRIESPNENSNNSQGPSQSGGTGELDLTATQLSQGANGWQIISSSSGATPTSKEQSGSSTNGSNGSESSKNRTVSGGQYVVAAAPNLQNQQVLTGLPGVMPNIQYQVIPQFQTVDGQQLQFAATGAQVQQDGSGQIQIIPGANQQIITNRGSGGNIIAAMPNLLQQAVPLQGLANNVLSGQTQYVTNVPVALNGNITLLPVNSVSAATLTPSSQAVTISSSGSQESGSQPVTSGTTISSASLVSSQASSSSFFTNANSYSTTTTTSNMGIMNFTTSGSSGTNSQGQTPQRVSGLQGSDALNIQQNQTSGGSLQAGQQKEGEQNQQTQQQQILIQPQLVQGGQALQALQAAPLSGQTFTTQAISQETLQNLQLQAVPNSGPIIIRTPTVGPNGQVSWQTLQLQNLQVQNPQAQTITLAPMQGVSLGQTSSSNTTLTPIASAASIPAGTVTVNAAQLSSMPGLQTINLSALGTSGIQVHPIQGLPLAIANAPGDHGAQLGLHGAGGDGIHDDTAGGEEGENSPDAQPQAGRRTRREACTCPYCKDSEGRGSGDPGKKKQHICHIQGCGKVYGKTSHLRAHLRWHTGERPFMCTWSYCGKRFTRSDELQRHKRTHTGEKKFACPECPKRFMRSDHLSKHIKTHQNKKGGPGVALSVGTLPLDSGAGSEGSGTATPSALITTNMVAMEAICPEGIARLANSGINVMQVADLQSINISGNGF

B1: MRE1.3 (dsDNA)
DNA 1: GCAGCAGCCTCCTCCCCCCGCACGGTGTGAGCGCCCGACGCGGCCGAGGCGGCCGGAGTCCCGAG
DNA 2: CTCGGGACTCCGGCCGCCTCGGCCGCGTCGGGCGCTCACACCGTGCGGGGGGAGGAGGCTGCTGC
B1: the binding result is given as “binds”.

B2: MRE1.3a (25 bp) (dsDNA)
DNA 1: GCAGCAGCCTCCTCCCCCCGCACGG
DNA 2: CCGTGCGGGGGGAGGAGGCTGCTGC
Regarding B2, the binding result was “binds”.

The values are drawn from paper PMC3783164.
